From the Human Domainome abundance scans (Beltran et al. 2025)

B1: Gamma-crystallin C, residues 91 to 170; numbered along this chain, P07315 (parent)
chain: RLYEREDHKGLMMELSEDCPSIQDRFHLSEIRSLHVLEGCWVLYELPNYRGRQYLLRPQEYRRCQDWGAMDAKAGSLRRV
B2: Far upstream element-binding protein 1, residues 98 to 169; numbered along this chain, Q96AE4 (parent)
chain: RSVMTEEYKVPDGMVGFIIGRGGEQISRIQQESGCKIQIAPDSGGLPERSCMLTGTPESVQSAKRLLDQIVE

Variants of: B1
Assay: abundance fitness (aPCA) (normalised: wild type 0, dead -1); higher = more abundant; growth selection in yeast, the domain comes from the species named
Conditions: Homo sapiens

Abundance fitness, by site and new letter:
K9: E 0.017; R -0.132; I -0.68; H -0.174; M 0.212; Y -0.467; F -0.559; N -0.085; C -0.103; A -0.129; P -0.728; V -0.402; T -0.156; S -0.241; D -0.254; Q 0.117; G -0.171; W -0.909
E4: I -0.746; S -0.027; D -0.153; L -0.339; C -0.291; T -0.123; W -0.78; A -0.129; Y -0.7; M -0.019; N -0.261; K -0.375; R -0.582; G -0.348; P -0.341; F -0.347; H -0.571
L15: N -0.6; F -0.134; G -1.03; V 0.037; S -0.832; C -0.09; T -0.389; M -0.431; A -0.477; E -0.89; D -0.736
R1: V -0.381; I 0.241; T -0.314; E -0.756; K -0.072; W -0.404; S -0.936; G -0.879; D -0.857
E14: T -0.169; A -0.15; I -0.265; Q -0.227; G -0.524; C -0.565; V -0.227; Y -0.04; R -0.397; S -0.25; D -0.485; P -0.269; K -0.095
L2: P -1.13; Y -0.936; G -0.922; M -0.346; A -0.494; W -0.847; T -0.622; C -0.777; V -0.714
S16: N -0.025; P -0.859; K -0.135; G -0.082; A -0.043; I -0.102; E 0.118; D -0.029; Q -0.132; L -0.276; M -0.365; C -0.096; F -0.123
E6: L -0.892; N -0.416; M -0.698; D -0.538; W -0.718; R -0.642; V -0.53; A -0.284; T -0.362; G -0.803; Q -0.445; Y -0.64
R5: W -0.203; P -0.788; S -0.144; D -0.175; L -0.029; V -0.429; T -0.747; G -0.105; A -0.309; M 0.047; H 0.185
G10: F -0.717; A -0.976; D -0.731; N -0.655; T -1.01; C -0.905; L -1.06; Q -0.775; V -0.821; H -0.818; Y -0.623; P -0.951; S -0.923; R -0.931
H8: Y 0.111
Y3: W -0.324; F -0.238; V -0.949; H -0.598; L -1.04; A -0.771; R -0.846; C -0.64; N -0.633; P -0.807; K -0.948; G -0.955; Q -0.88
M12: H -0.483; C -0.288; W -0.17; D -0.863; F -0.342; L -0.238; Q -0.636; K -0.464; V -0.096; A -0.127; P -0.038; T -0.464; S -0.172; G -0.286; Y -0.063; I -0.242; R -0.32; N -0.11
L11: G -0.092; D -0.248; Q -0.127; R -0.031; S -0.089; V -0.059; W -0.289; N 0.018; A -0.13; M -0.017; T -0.049; F -0.017; C -0.08; I -0.116; H -0.144; P -0.004; E 0
M13: Q -0.22; S -0.441; C -0.118; W -0.018; E -0.327; L -0.078; N -0.24; A -0.085; V -0.002; Y -0.112; G -0.07; R -0.261; H -0.283; I -0.148; P -1; F -0.253; D -0.706
D7: S -0.277; C -0.237; K -0.578; A -0.248; H -0.221; V -0.936; Y -0.098; L -0.554; P -0.846; G -0.186; T -0.995; E -0.03; Q -0.273; F -0.203; R -0.505; M -0.241

Variants of: B2
Assay: as above
Conditions: Homo sapiens

Abundance fitness of substitutions, site by site:
D68: F -0.052; L -0.064; C -0.065; W -0.042; N -0.025; T -0.034; V -0.078; P -0.544; E -0.023; Q -0.058; I -0.093; S -0.012; A 0.004; G 0.014; H -0.045; R -0.019; M -0.011; K -0.001
Q69: G -0.002; T -0.029; N -0.02; P -0.097; L -0.065; H -0.041; E 0.023; F -0.097; A -0.006; Y -0.162; I -0.054; C -0.079; K -0.004; R -0.009; W -0.274; V -0.014; S -0.018
V71: W -0.094; H -0.128; S -0.074; P -0.047; E -0.089; D -0.114; Q -0.008; C -0.044; F -0.065; R -0.046; T -0.083; A -0.036; I -0.077; Y -0.183; G -0.061; N -0.087; K -0.031; M -0.088
I70: K -0.03; R -0.013; F 0.024; A 0.062; W -0.02; N -0.142; E 0.001; S -0.046; H -0.062; V 0.001; P -0.259; G -0.11; Y -0.003; C 0.004; Q -0.019
R65: T -0.019; S -0.034; Y -0.053; V -0.002; N -0.008; P -0.464; L -0.024; Q -0.02; W -0.082
L66: P -0.684; A -0.076; S -0.029; D -0.127; I -0.045; W -0.123; H -0.05; C 0; R -0.053; V -0.11; M -0.006; Y -0.079; F -0.087; N -0.108; E -0.017
L67: V -0.145; K -0.653; R -0.777; D -0.412; P -0.484; W -0.94; Q -0.575; E -0.54; Y -0.815; G -0.583; N -0.501; M -0.107; S -0.648; C -0.161; I 0.008; H -0.592; F -0.121; T -0.534
E72: D -0.048; F -0.111; G 0.024; W -0.008; P -0.065; C -0.034; K -0.129; Y -0.01; T 0.05; H -0.007; A 0.04; S 0.012; V 0.051; N -0.11; M -0.01
